In patent US20250352667A1:
Where a chain is given by its changes, count along the chain named. Names may count otherwise. One block for each binder: values may come before it.

Columns and labels:
[1] = target: KEAP1 (wild-type full-length), His-tagged (human) (UniProt Q14145); assay: AlphaScreen; 2.4 nM FLAG-NRF2, 150 nM His-KEAP1; Rep 2; control for I28V
[2] = target: KEAP1 (wild-type full-length), His-tagged (human) (UniProt Q14145); assay: AlphaScreen; 9.6 nM FLAG-NRF2, 150 nM His-KEAP1; Rep 2; control for I28V
[3] = target: KEAP1 (wild-type full-length), His-tagged (human) (UniProt Q14145); assay: AlphaScreen; 19.2 nM FLAG-NRF2, 150 nM His-KEAP1; Rep 1; control for I28V
[4] = target: KEAP1 (wild-type full-length), His-tagged (human) (UniProt Q14145); assay: AlphaScreen; 19.2 nM FLAG-NRF2, 150 nM His-KEAP1; Rep 2; control for I86V
[5] = target: KEAP1 (wild-type full-length), His-tagged (human) (UniProt Q14145); assay: AlphaScreen; 614.4 nM FLAG-NRF2, 150 nM His-KEAP1; Rep 1; control for I28V
[6] = target: KEAP1 (wild-type full-length), His-tagged (human) (UniProt Q14145); assay: AlphaScreen; 307.2 nM FLAG-NRF2, 150 nM His-KEAP1; Rep 3; control for I86V
[7] = target: KEAP1 (wild-type full-length), His-tagged (human) (UniProt Q14145); assay: AlphaScreen; 9.6 nM FLAG-NRF2, 150 nM His-KEAP1 (same value as in Table 26)
[8] = target: KEAP1 (wild-type full-length), His-tagged (human) (UniProt Q14145); assay: AlphaScreen; 19.2 nM FLAG-NRF2, 150 nM His-KEAP1; Repeat 1 (same value as in Table 26)
[9] = target: KEAP1 (wild-type full-length), His-tagged (human) (UniProt Q14145); assay: AlphaScreen; 4.8 nM FLAG-NRF2, 150 nM His-KEAP1; signal against NRF2 only; control for I28V
[10] = target: KEAP1 (wild-type full-length), His-tagged (human) (UniProt Q14145); assay: AlphaScreen; FLAG-NRF2 wt isoform 1 9.6 nM, His-KEAP1 150 nM; Rep 3; positive control for I86V
[11] = target: KEAP1 (wild-type full-length), His-tagged (human) (UniProt Q14145); assay: AlphaScreen; FLAG-NRF2 wt isoform 1 2.4 nM, His-KEAP1 150 nM; Rep 1; positive control for Q75R
[12] = target: KEAP1 (wild-type full-length), His-tagged (human) (UniProt Q14145); assay: AlphaScreen; FLAG-NRF2 wt isoform 1 38.4 nM, His-KEAP1 150 nM; Repeat 2; positive control for Q75R
[13] = target: KEAP1 (wild-type full-length), His-tagged (human) (UniProt Q14145); assay: AlphaScreen; FLAG-NRF2 Q75R 76.8 nM, His-KEAP1 150 nM; Rep 1
[14] = target: KEAP1 (wild-type full-length), His-tagged (human) (UniProt Q14145); assay: AlphaScreen; NRF2 Q75R 38.4 nM, KEAP1 150 nM; signal against NRF2-only control
[15] = target: KEAP1 (wild-type full-length), His-tagged (human) (UniProt Q14145); assay: AlphaScreen; NRF2 Q75R 76.8 nM, KEAP1 150 nM; signal against NRF2-only control
[16] = target: KEAP1 (wild-type full-length), His-tagged (human) (UniProt Q14145); assay: AlphaScreen; 9.6 nM FLAG-NRF2, 150 nM His-KEAP1; Rep 1
[17] = target: KEAP1 (wild-type full-length), His-tagged (human) (UniProt Q14145); assay: AlphaScreen; 76.8 nM FLAG-NRF2, 150 nM His-KEAP1; Rep 1
[18] = target: KEAP1 (wild-type full-length), His-tagged (human) (UniProt Q14145); assay: AlphaScreen; 153.6 nM FLAG-NRF2, 150 nM His-KEAP1; Rep 1
[19] = target: KEAP1 (wild-type full-length), His-tagged (human) (UniProt Q14145); assay: AlphaScreen; 614.4 nM FLAG-NRF2, 150 nM His-KEAP1; Rep 1
[20] = target: KEAP1 (wild-type full-length), His-tagged (human) (UniProt Q14145); assay: AlphaScreen; 1228.8 nM FLAG-NRF2, 150 nM His-KEAP1; Rep 2
[21] = target: KEAP1 (wild-type full-length), His-tagged (human) (UniProt Q14145); assay: AlphaScreen; 9.6 nM FLAG-NRF2, 150 nM His-KEAP1; signal against NRF2 only
[22] = target: KEAP1 (wild-type full-length), His-tagged (human) (UniProt Q14145); assay: AlphaScreen; 614.4 nM FLAG-NRF2, 150 nM His-KEAP1; signal against NRF2 only
[23] = target: KEAP1 (wild-type full-length), His-tagged (human) (UniProt Q14145); assay: AlphaScreen; 19.2 nM FLAG-NRF2, 150 nM His-KEAP1; against wild-type NRF2 isoform 1 = 100%
[24] = target: KEAP1 (wild-type full-length), His-tagged (human) (UniProt Q14145); assay: AlphaScreen; FLAG-NRF2 I86V 2.4 nM, His-KEAP1 150 nM; Rep 2
[25] = target: KEAP1 (wild-type full-length), His-tagged (human) (UniProt Q14145); assay: AlphaScreen; FLAG-NRF2 I86V 9.6 nM, His-KEAP1 150 nM; Rep 3
[26] = target: KEAP1 (wild-type full-length), His-tagged (human) (UniProt Q14145); assay: AlphaScreen; FLAG-NRF2 I86V 38.4 nM, His-KEAP1 150 nM; Rep 1
[27] = target: KEAP1 (wild-type full-length), His-tagged (human) (UniProt Q14145); assay: AlphaScreen; FLAG-NRF2 I86V 38.4 nM, His-KEAP1 150 nM; Rep 3
[28] = target: KEAP1 (wild-type full-length), His-tagged (human) (UniProt Q14145); assay: AlphaScreen; NRF2 I86V 76.8 nM, KEAP1 150 nM; signal against NRF2-only control

Chain of KEAP1 (wild-type full-length), His-tagged (human) (Q14145 2-624 limits assumed): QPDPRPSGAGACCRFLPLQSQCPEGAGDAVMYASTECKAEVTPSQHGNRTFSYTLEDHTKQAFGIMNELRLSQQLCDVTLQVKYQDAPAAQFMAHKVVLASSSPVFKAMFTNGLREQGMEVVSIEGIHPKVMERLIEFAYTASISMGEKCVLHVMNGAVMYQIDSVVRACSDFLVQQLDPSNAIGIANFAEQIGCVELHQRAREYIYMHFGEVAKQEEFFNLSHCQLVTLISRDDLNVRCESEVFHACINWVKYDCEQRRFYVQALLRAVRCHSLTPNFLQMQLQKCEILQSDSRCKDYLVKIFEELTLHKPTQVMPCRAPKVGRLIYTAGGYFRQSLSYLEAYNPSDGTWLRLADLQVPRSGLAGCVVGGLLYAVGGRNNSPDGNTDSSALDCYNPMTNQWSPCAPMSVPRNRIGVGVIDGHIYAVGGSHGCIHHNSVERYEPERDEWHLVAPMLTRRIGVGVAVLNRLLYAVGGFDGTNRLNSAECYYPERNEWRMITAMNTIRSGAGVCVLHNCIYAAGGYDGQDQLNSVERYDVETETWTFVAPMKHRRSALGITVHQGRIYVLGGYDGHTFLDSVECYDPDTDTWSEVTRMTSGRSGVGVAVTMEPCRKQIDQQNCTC

B1: NRF2 isoform 1 (wild-type full-length), FLAG-tagged (protein)
chain: MMDLELPPPGLPSQQDMDLIDILWRQDIDLGVSREVFDFSQRRKEYELEKQKKLEKERQEQLQKEQEKAFFAQLQLDEETGEFLPIQPAQHIQSETSGSANYSQVAHIPKSDALYFDDCMQLLAQTFPFVDDNEVSSATFQSLVPDIPGHIESPVFIATNQAQSPETSVAQVAPVDLDGMQQDIEQVWEELLSIPELQCLNIENDKLVETTMVPSPEAKLTEVDNYHFYSSIPSMEKEVGNCSPHFLNAFEDSFSSILSTEDPNQLTVNSLNSDATVNTDFGDEFYSAFIAEPSISNSMPSPATLSHSLSELLNGPIDVSDLSLCKAFNQNHPESTAEFNDSDSGISLNTSPSVASPEHSVESSSYGDTLLGLSDSEVEELDSAPGSVKQNGPKTPVHSSGDMVQPLSPSQGQSTHVHDAQCENTPEKELPVSPGHRKTPFTKDKHSSRLEAHLTRDELRAKALHIPFPVEKIINLPVVDFNEMMSKEQFNEAQLALIRDIRRRGKNKVAAQNCRKRKLENIVELEQDLDHLKDEKEKLLKEKGENDKSLHLLKKQLSTLYLEVFSMLRDEDGKPYSPSEYSLQQTRDGNVFLVPKSKKPDVKKN
A-counts [1]: 628 A-counts
A-counts [2]: 1640 A-counts
A-counts [3]: 1980 A-counts
A-counts [4]: 3270 A-counts
A-counts [5]: 1780 A-counts
A-counts [6]: 2910 A-counts
S/N [7]: 4.1
A-counts [8]: 1980 A-counts
S/N [9]: 3.2
A-counts (NRF2 plus KEAP1) [10]: 2410 A-counts
A-counts (NRF2 plus KEAP1) [11]: 419 A-counts
A-counts (NRF2 plus KEAP1) [12]: 1450 A-counts

B3: NRF2 isoform 1 (I28V full-length), FLAG-tagged (protein)
chain: B1 chain with I28V
A-counts [16]: 1570 A-counts
A-counts [17]: 1560 A-counts
A-counts [18]: 1400 A-counts
A-counts [19]: 1220 A-counts
A-counts [20]: 1030 A-counts
S/N [21]: 3.4
S/N [22]: 1
Binding Percentage (%) [23]: 68.3%

Now from value to binder:

A-counts (NRF2 plus KEAP1) [13]: 1110 A-counts
S/N [14]: 2.4
S/N [15]: 1.8
B2: NRF2 isoform 1 (Q75R full-length), FLAG-tagged (protein)
chain: B1 chain with Q75R

A-counts (NRF2 plus KEAP1) [24]: 1610 A-counts
A-counts (NRF2 plus KEAP1) [25]: 2860 A-counts
A-counts (NRF2 plus KEAP1) [26]: 3010 A-counts
A-counts (NRF2 plus KEAP1) [27]: 2930 A-counts
S/N [28]: 2.3
B4: NRF2 isoform 1 (I86V full-length), FLAG-tagged (protein)
chain: B1 chain with I86V
